Numbering of substitutions follows the chain as printed. Blank lines part the entries; values can stand above or below the binder they belong to.
What was measured:
[1] = molecular target: T1, SR344 (N-terminal 1st to 344th amino acids of soluble human IL-6R) (human, UniProt P08887 20-344, limits assumed); experiment: cell-based or functional assay
T1 sequence (looked up): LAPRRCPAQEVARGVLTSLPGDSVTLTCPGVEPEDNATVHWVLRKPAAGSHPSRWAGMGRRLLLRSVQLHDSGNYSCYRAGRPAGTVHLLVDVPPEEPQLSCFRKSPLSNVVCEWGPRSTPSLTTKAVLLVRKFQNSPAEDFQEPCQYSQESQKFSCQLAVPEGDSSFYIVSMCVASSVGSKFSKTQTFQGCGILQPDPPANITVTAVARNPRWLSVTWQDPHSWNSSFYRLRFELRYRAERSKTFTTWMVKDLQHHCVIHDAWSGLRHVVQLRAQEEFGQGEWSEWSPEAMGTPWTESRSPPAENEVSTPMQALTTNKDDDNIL

[2] = molecular target: T1, SR344 (N-terminal 1st to 344th amino …); experiment: SPR (Biacore T100), antibody captured on Protein A/G, SR344 as analyte, 37 C
Procedure: (§1) This measurement was carried out under the same conditions described in Example 2. The running buffer used was HBS-EP+, and the flow rate was 20 μl/min. Each antibody was prepared so that about 100 RU of the antibody was bound to Protein A/G. SR344 was prepared at 0, 0.065, 0.131, and 0.261 μg/ml using HBS-EP+ and used as an analyte. In the first step of the measurement, the antibody in solution was bound to Protein A/G, and the analyte solution was allowed to interact therewith. After three minutes of interaction, the solution was switched to HBS-EP+, and the dissociation phase was monitored for 10 or 15 minutes. After measurement of the dissociation phase, the sensor chip was regenerated by washing with 10 μl of 10 mM glycine-HCl (pH 1.5). The association, dissociation, and regeneration constitute one analysis cycle. Each antibody was measured according to this cycle.
The sensorgram was kinetically analyzed using the Biacore-specific data analysis software, Biacore T100 Evaluation Software.

[3] = molecular target: T2, recombinant human IL-6R sR (R&D systems) (human, UniProt P08887 20-358); experiment: SPR (Biacore T100), antibody captured on Protein A, rhIL-6sR as analyte, 25 C
T2 construct: Bought soluble receptor; also called rhIL-6sR; rhIL-s6R
T2 sequence (looked up): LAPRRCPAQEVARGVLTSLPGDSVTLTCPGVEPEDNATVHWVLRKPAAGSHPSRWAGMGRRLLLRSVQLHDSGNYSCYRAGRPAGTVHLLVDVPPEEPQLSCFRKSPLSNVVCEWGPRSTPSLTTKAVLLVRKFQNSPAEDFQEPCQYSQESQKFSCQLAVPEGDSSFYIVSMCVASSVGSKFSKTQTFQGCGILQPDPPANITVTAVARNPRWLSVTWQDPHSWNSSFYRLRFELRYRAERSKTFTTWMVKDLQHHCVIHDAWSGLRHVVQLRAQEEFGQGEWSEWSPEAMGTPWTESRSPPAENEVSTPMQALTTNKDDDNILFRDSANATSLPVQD
Procedure: The antigen-antibody interaction was measured by immobilizing 4,400 to 5,000 RU of rec-Protein A (Zymed) immobilized onto a sensor chip by the amine coupling method, binding various antibodies onto the chip, and then flowing the antigen over the chip as an analyte. For the antigen, various concentrations of rhIL-6sR were used. All measurements were carried out at 25° C. The kinetic parameters, association rate constant kₐ (1/Ms) and dissociation rate constant kd (1/s) were calculated from the sensorgrams obtained by measurement. Then, KD (M) was determined based on the rate constants. The respective parameters were determined using Biacore T100 Evaluation Software (Biacore).

[4] = molecular target: T2, recombinant human IL-6R sR (R&D systems); experiment: SPR (Biacore T100), antibody captured on Protein A/G, antigen as analyte, 37 C
Procedure: (§2) A sensor chip was prepared by immobilizing about 3,000 RU of Protein A/G onto CM5 (Biacore) with the amine coupling method. […] The running buffer used was HBS-EP+, and the flow rate was 20 μl/min. Each antibody was prepared so that about 100 RU of the antibody was bound to Protein A/G. For the analyte, rhIL-6sR was prepared at 0, 0.156, 0.313, and 0.625 μg/ml using HBS-EP+, while SR344 was adjusted to 0, 0.0654, 0.131, and 0.261 μg/ml. […] After three minutes of interaction, the solution was switched with HBS-EP+ (Biacore), and the dissociation phase was monitored for ten minutes. After measurement of the dissociation phase, the sensor chip was regenerated by washing with 10 μl of 10 mM glycine-HCl (pH 1.5). The association, dissociation, and regeneration constituted one analytic cycle. All experiments were carried out at 37° C.
(§3) The obtained sensorgrams were kinetically analyzed using Biacore T100 Evaluation Software, which is a data analysis software specific for Biacore (Table 3). […] All measurements described hereinafter in the Examples were carried out at 37° C. to kinetically analyze the antigen-antibody reaction using SR344 and protein A/G.

[5] = molecular target: T1, SR344 (N-terminal 1st to 344th amino …); experiment: as above
Procedure: as §2, §3

[6] = molecular target: T2, recombinant human IL-6R sR (R&D systems); experiment: as above; remark: listed apart in the source
Procedure: (§4) The antigen-antibody interaction was measured by immobilizing purified Recomb Protein A/G (Pierce) (hereinafter “Protein A/G”) onto a sensor chip, binding various antibodies onto the chip, and then flowing the antigen as an analyte over the chip. Various concentrations of rhIL-6sR (R&D systems) and recombinant soluble IL-6 receptor (SR344 prepared in Example 1) were used as the antigen. The sugar chain structure of rhIL-6sR produced by baculovirus-infected insect cells is of high-mannose type. On the other hand, the sugar chain structure of SR344 produced by CHO cells is assumed to be of the complex sugar chain type with sialic acid at its end. Since the sugar chain structure of soluble IL-6 receptor in an actual human body is assumed to be of the complex sugar chain type with sialic acid at its end, SR344 is expected to have a structure closer to that of soluble IL-6 receptor in the human body. Thus, a comparison test between rhIL-6sR and SR344 was carried out in this experiment.
as §2

[7] = molecular target: T1, SR344 (N-terminal 1st to 344th amino …); experiment: as above; remark: listed apart in the source
Procedure: as §4, §2

[8] = molecular target: T1, SR344 (N-terminal 1st to 344th amino …); experiment: SPR (Biacore T100), antibody captured on anti-IgG (γ-chain specific) F(ab')2, SR344 as analyte, pH 7.4, 37 C
Procedure: Antigen-antibody reaction kinetics was analyzed using Biacore T100 (GE Healthcare). The SR344-antibody interaction was measured by immobilizing appropriate amounts of anti-IgG (γ-chain specific) F(ab′)2 onto a sensor chip by amine coupling method, binding antibodies of interest onto the chip at pH 7.4, and then flowing IL-6 receptor SR344 adjusted to be various concentrations at pH 7.4 over the chip as an analyte. All measurements were carried out at 37° C. The kinetic parameters, association rate constant kₐ (1/Ms) and dissociation rate constant kd (1/s) were calculated from the sensorgrams obtained by measurement. Then, KD (M) was determined based on the rate constants. The respective parameters were determined using Biacore T100 Evaluation Software (GE Healthcare).

[9] = molecular target: T1, SR344 (N-terminal 1st to 344th amino …); experiment: SPR (Biacore T100), SR344 as analyte, 37 C
[10] = molecular target: T1, SR344 (N-terminal 1st to 344th amino …); experiment: SPR (Biacore T100), antibody captured on Protein A/G, SR344 as analyte, 37 C; remark: listed apart in the source
Procedure: The antigen-antibody interaction was measured by immobilizing purified Recomb Protein A/G (Pierce) (hereinafter “Protein A/G”) onto a sensor chip, binding various antibodies onto the chip, and then flowing the antigen over the chip as an analyte. Various concentrations of recombinant soluble IL-6 receptor (SR344) were used as the antigen. The measurement conditions were the same as described in Example 2.
Kinetic analysis was carried out using Biacore-specific data analysis software Biacore T100 Evaluation Software.

[11] = molecular target: T1, SR344 (N-terminal 1st to 344th amino …); experiment: as above; remark: listed apart in the source
[12] = molecular target: T1, SR344 (N-terminal 1st to 344th amino …); experiment: SPR (Biacore T100), Protein A/G capture, SR344 at 0, 0.36 and 1.4 µg/ml, 15 min dissociation, 37 C
[13] = molecular target: T1, SR344 (N-terminal 1st to 344th amino …); experiment: as above; remark: listed apart in the source
Procedure: as §1
The Tm of purified H96/PF1L-IgG1 was determined by the method described in Example 5. The affinity measurement was carried out under essentially the same conditions used in Example 5. Note that the concentration of SR344 was adjusted to 0, 0.36, and 1.4 μg/ml, and the dissociation phase was monitored for 15 minutes.

B2: Fv3-M73 (antibody, V domains shown)
VH: QVQLQESGPGLVKPSETLSLTCAVSGHSISHDHAWSWVRQPPGEGLEWIGFISYSGITNYNPTLQGRVTISRDNSKNTLYLQMNSLRAEDTAVYYCARSLARTTAMDYWGEGTLVTVSS
VL: DIQMTQSPSSLSASVGDSVTITCQASRDISSHLNWYQQKPGKAPELLIYYGSHLLSGVPSRFSGSGSGTDFTFTISSLEAEDAATYYCGQGNRLPYTFGQGTKVEIER
notes: also called VH4-M73/VL1-kappa
Kd [8]: 1000 pM
koff [8]: 0.00087 s⁻¹
kon [8]: 850000 M⁻¹ s⁻¹
fold higher affinity than TOCILIZUMAB [9]: 3 fold

B3: Fv4-M73 (antibody, V domains shown)
VH: B2 VH with T63S
VL: B2 VL with R27T
notes: also called VH3-M73/VL3-kappa
Kd [8]: 1400 pM
koff [8]: 0.001 s⁻¹
kon [8]: 750000 M⁻¹ s⁻¹
fold higher affinity than TOCILIZUMAB [9]: 2 fold

B4: H53/L28 (antibody, IgG1, V domains shown)
VH: QVQLQESGPGLVKPSETLSLTCAVSGYSISDDHAWSWVRQPPGEGLEWIGYISYSGITNYNPSLKGRVTISRDTSKNQFSLKLSSVTAADTAAYYCARSLARTTAMDYWGEGTLVTVSS
VL: DIQMTQSPSSLSASVGDSVTITCQASQDISSYLNWYQQKPGKAPELLIYYGSELHSGVPSRFSGSGSGTDFTFTISSLEAEDAATYYCQQGNSLPYTFGQGTKVEIE
notes: Made from the vectors of the IgG1 antibody WT
Kd [10]: 680 pM
koff [10]: 0.00052 s⁻¹
kon [10]: 760000 M⁻¹ s⁻¹
Kd [2]: 680 pM
koff [2]: 0.00052 s⁻¹
kon [2]: 760000 M⁻¹ s⁻¹
fold improved affinity against WT [11]: ~6 fold

The remaining lines, values ahead:

BaF3/gp130 neutralizing activity, 100% inhibitory concentration against WT [1]: ~100 fold
Kd [2]: 67 pM
koff [2]: 4.3e-05 s⁻¹
kon [2]: 640000 M⁻¹ s⁻¹
Kd [3]: 25 pM
koff [3]: 3.1e-05 s⁻¹
kon [3]: 1.2e+06 M⁻¹ s⁻¹
fold improved affinity against WT [4]: 40 to 60 fold
fold improved affinity against WT [5]: 40 to 60 fold
Kd [6]: 28 pM
koff [6]: 4.5e-05 s⁻¹
kon [6]: 1.6e+06 M⁻¹ s⁻¹
Kd [7]: 67 pM
koff [7]: 4.3e-05 s⁻¹
kon [7]: 640000 M⁻¹ s⁻¹
B1: RDC-23 (antibody, V domains shown)
VH: QVQLQESGPGLVRPSQTLSLTCTVSGYSITSDHAWSWVRQPPGRGLEWIGYISYSGITTYNPSLKSRVTMLRDTSKNQFSLRLSSVTAADTAVYYCARVLARITAMDYWGQGSLVTVSS
VL: DIQMTQSPSSLSASVGDRVTITCRASQDISSYLNWYQQKPGKAPKLLIYYTSRLHSGVPSRFSGSGSGTDFTFTISSLQPEDIATYYCGQGNRLPYTFGQGTKVEIK
notes: also called RDC-5H/RDC-11L

Kd [12]: 30 pM
koff [12]: 4.4e-05 s⁻¹
kon [12]: 1.5e+06 M⁻¹ s⁻¹
Kd [2]: 27 pM
koff [2]: 3.5e-05 s⁻¹
kon [2]: 1.3e+06 M⁻¹ s⁻¹
fold improved affinity against WT [11]: ~150 fold
Kd [13]: 31 pM
koff [13]: 4.2e-05 s⁻¹
kon [13]: 1.4e+06 M⁻¹ s⁻¹
B5: PF1 antibody (antibody, IgG1, V domains shown)
VH: B4 VH with S99V, T103I
VL: B4 VL with Q89G, S93R
notes: also called PF1-IgG1; PF1_H/PF1_L

Reference: US20150284465A1 (Chugai, published 2015)
